From US20250277013A1 (published 2025) come the findings set out here.

Assay [1] addresses T1, Protein Tyrosine Phosphatase Receptor Type Z1 (PTPRZ1) peptide on HLA-A*02:01 (human).
T1 peptide: MIWEHNVEV
Kind of assay: multimer staining.

For assay [2], the target named is T2, Neuroligin-4, X-linked (NLGN4X) peptide on HLA-A*02:01 (human).
T2 peptide: NLDTLMTYV
Kind of assay: multimer staining.

B1: PTPRZ1(1814-1822)-specific TCR (TCR, V domains shown)
Valpha: AQSVTQLDSQVPVFEEAPVELRCNYSSSVSVYLFWYVQYPNQGLQLLLKYLSGSTLVKGINGFEAEFNKSQTSFHLRKPSVHISDTAEYFCAVSDRGAGNMLTFGGGTRLMVKP
Vbeta: GAGVSQSPSNKVTEKGKDVELRCDPISGHTALYWYRQSLGQGLEFLIYFQGNSAPDKSGLPSDRFSAERTGGSVSTLTIQRTQQEDSAVYLCASSLGLAGGLAGELFFGEGSRLTVL
B1: in assay [1], the binding result was “recognises”.

B2: NLGN4X(131-139)-specific TCR (TCR, V domains shown)
Valpha: RKEVEQDPGPFNVPEGATVAFNCTYSNSASQSFFWYRQDCRKEPKLLMSVYSSGNEDGRFTAQLNRASQYISLLIRDSKLSDSATYLCVVTDSGNTGKLIFGQGTTLQVKP
Vbeta: GAVVSQHPSWVICKSGTSVKIECRSLDFQATTMFWYRQFPKQSLMLMATSNEGSKATYEQGVEKDKFLINHASLTLSTLTVTSAHPEDSSFYICSARVDYNEQFFGPGTRLTVL
Regarding B2, the binding result in assay [2] is given as “recognises”.
